Here are results for 83 variants from the RNAGym collection of RNA variant scans (doi:10.1073/pnas.2313332121).

To fix the notation:
B1: TPR t1 (parent)
chain: GACCAAUCUGCCCUCAGAGCUCGAGAACAUCUUCGGAUGCAGAGGAGGCAGGCUUCGGUGGCGCGAUAGCGCCAACGUCCUCAACCUCCAAUGCAUCCCACCACAUGAUGAUGCCUGAAGAGCCUUGGUUUUUUG

Variants of B1 are the subject of this data set. In words: polymerase ribozyme fitness, log enrichment relative to wild type (log ratio); higher = more active; in vitro selection for triplet polymerase activity. In a few lines: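 Streptavidin-bead capture of gel-excised extended constructs, followed by RT-PCR, closed a single triplicate in vitro selection round. That round began by annealing PCR-built, transcribed mutant libraries of each subunit of a heterodimeric triplet polymerase ribozyme with a biotinylated primer, the partner subunit and triplets, then incubating them frozen at −7 °C. After Illumina sequencing of inputs and outputs, genotypes needed ≥10 input reads and ≥1 read per output. Fitness is the base-2 logarithm of genotype enrichment over wild-type enrichment, using inverse-variance-weighted replicate averages.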
On to C20U C22A C76U C85G C123U, for which the “polymerase ribozyme fitness (log ratio)” value is -5.95.
Regarding U21A G23A A121C, the “polymerase ribozyme fitness (log ratio)” value is -5.61.
As for C20A G45U C56U, the figure is -3.25; as for C20A G93U U112G, -4.35; as for U21G A37U C80A A121G, -3.51.
Under C20U G44A A74G U87C U92A G93A C124U stands -3.64; under C20U U55G C56A, -1.7.
As for U21A A37U C94U G120A, the figure is 0.736; as for C22G A50G C73G C94A G120C, -4.89.
Regarding C20U C62A C104U A119U C123A G128U, the “polymerase ribozyme fitness (log ratio)” value is -2.83.
As for C20G C56A C124U, the figure is -4.05; as for C20A U59C, -2.71.
As for U21A G60A U96C U116G, the figure is -1.53; as for U21A A37C U38G U112G G122C C124U G135A, -1.11; as for C20A G77U G120C, -1.96.
For C22A U129G, the “polymerase ribozyme fitness (log ratio)” value is -6.22.
As for C20G A43U, the “polymerase ribozyme fitness (log ratio)” value was -3.89.
As for C22A C49U C73G C124G, the figure is -4.49; as for C20A C49G G93A, -3.77; as for G19U U55G U87G A95C U112C C114A, 0.393.
C20U G63C C94A G120C: the “polymerase ribozyme fitness (log ratio)” value was -2.23.
For the variant C20U G69U C70G C94A, the “polymerase ribozyme fitness (log ratio)” value is -3.15.
Take C22A A43U U106C C114U: the “polymerase ribozyme fitness (log ratio)” value is -4.24.
As for C22A A43C U78C A83C C86U G113A, the “polymerase ribozyme fitness (log ratio)” value was -5.47.
As for U21G G47A A100C U109A U112C A119G, the “polymerase ribozyme fitness (log ratio)” value was -7.27.
For the variant C20A A27G C40G U55C G71C, the “polymerase ribozyme fitness (log ratio)” value was -4.12.
Consider U21A U92A, for which the “polymerase ribozyme fitness (log ratio)” value is -3.73.
Under C20U G52A C70U G120A stands -1.85; under G19U G61A C82G C124A, -2.1.
As for U21C A95C G107C U109A G113A C124U, the “polymerase ribozyme fitness (log ratio)” value is -7.51.
As for C20G G45U G61A, the figure is -4.19; as for C22A U59A, -5.52; as for C20A G39A G42C G61U U129C, -5.17.
For the variant C22G C53U C85U U112A, the “polymerase ribozyme fitness (log ratio)” value is -3.51.
C20A G127A: the “polymerase ribozyme fitness (log ratio)” value is -3.23.
Under U21A A46U G93A G113U U130A U132A stands -3.92.
On to U21C U55A U78A U131A, for which the “polymerase ribozyme fitness (log ratio)” value was -0.459.
For the variant C20A G52C U125A, the “polymerase ribozyme fitness (log ratio)” value is -3.04.
Under C20G U21A C62U U112A stands -1.31.
Under C20U C40G stands -2.17.
Under C20U A95G C104A U109C C114U C124A stands -3.03; under C20U C28A G60A A121C, -2.44.
Take C20A A95G U112A G120U: the “polymerase ribozyme fitness (log ratio)” value is -1.91.
Under C20A G47U C72A A111C stands -3.96; under C22G A26C C94A A95U A119G, -4.33; under C22G A50C A75G, -3.94.
Under C20U A24U C56U stands -6.92.
Under U21A A37U C72U stands -0.453; under G19U G69C, -4.45.
As for G19U G69A, the “polymerase ribozyme fitness (log ratio)” value was -3.8.
As to C20G C123G, the “polymerase ribozyme fitness (log ratio)” value is -2.95.
On to C22A G52U A66U U112G, for which the “polymerase ribozyme fitness (log ratio)” value was -5.88.
As for G19U C72G U78A, the figure is -5.06.
U21A C76U A91C: the “polymerase ribozyme fitness (log ratio)” value is -2.35.
G19U C70U U78C C88U: the “polymerase ribozyme fitness (log ratio)” value is -3.57.
As for G19U U59A, the figure is -3.3; as for C20G G52A A111U, -3.23.
Under C20A C28U C62U C101A G113A stands -6.69; under U21C U30G C31A G36C C124A, -4.94; under C22A C73A, -4.25.
Under G19U C86U stands -2.9; under U21G G63C U78A C115U A119U U130A, -5.59.
U21A G69A U112A: the “polymerase ribozyme fitness (log ratio)” value was -3.
Under C22A U87A stands -4.86; under C20U G57A G63A C115A, -3.54; under C20U C72U G120C, -1.44.
As for G19U U87A, the figure is -3.34.
On to C22A G57U U106A A118G U133C, for which the “polymerase ribozyme fitness (log ratio)” value was -3.51.
Under C22G C72G stands -2.12; under U21A G52A C89U, -1.17.
Turning to C20A U92G G110U, the “polymerase ribozyme fitness (log ratio)” value is -5.28.
In the case of C22A A37U C53U C73G, the “polymerase ribozyme fitness (log ratio)” value was -5.35.
Consider U21C C28A G57U C70A U78G G110U, for which the “polymerase ribozyme fitness (log ratio)” value was -3.7.
G19U G122U C123A U129A: the “polymerase ribozyme fitness (log ratio)” value is -4.23.
As for C22G C40G G45A G47C C72G U112G U132A, the figure is -4.49.
For U21A U87A, the “polymerase ribozyme fitness (log ratio)” value came out at 0.177.
Take U21A U87G: the “polymerase ribozyme fitness (log ratio)” value was -0.0526.
As for C22A G36U U55C G120A, the figure is -4.54; as for C20G G36U U92C C101A U106A U109A, -3.02; as for C20U G42A, -2.49.
For the variant C20U C22A G23U G44U G63U A66C C88G A103C U109A, the “polymerase ribozyme fitness (log ratio)” value was -6.53.
In the case of C20U G77U A91G, the “polymerase ribozyme fitness (log ratio)” value is -5.11.
As for U21C U59G C101A, the figure is -1.38.
